Measurements published in US20250011379A1 (VERTEX PHARMACEUTICALS, published 2025).
Each block holds one binder with its values, some of them ahead of it.

Target: soluble human C3b (human, UniProt P01024 23-1663, limits assumed)
Test: cell-based or functional assay

Chain of soluble human C3b (P01024 23-1663 limits assumed): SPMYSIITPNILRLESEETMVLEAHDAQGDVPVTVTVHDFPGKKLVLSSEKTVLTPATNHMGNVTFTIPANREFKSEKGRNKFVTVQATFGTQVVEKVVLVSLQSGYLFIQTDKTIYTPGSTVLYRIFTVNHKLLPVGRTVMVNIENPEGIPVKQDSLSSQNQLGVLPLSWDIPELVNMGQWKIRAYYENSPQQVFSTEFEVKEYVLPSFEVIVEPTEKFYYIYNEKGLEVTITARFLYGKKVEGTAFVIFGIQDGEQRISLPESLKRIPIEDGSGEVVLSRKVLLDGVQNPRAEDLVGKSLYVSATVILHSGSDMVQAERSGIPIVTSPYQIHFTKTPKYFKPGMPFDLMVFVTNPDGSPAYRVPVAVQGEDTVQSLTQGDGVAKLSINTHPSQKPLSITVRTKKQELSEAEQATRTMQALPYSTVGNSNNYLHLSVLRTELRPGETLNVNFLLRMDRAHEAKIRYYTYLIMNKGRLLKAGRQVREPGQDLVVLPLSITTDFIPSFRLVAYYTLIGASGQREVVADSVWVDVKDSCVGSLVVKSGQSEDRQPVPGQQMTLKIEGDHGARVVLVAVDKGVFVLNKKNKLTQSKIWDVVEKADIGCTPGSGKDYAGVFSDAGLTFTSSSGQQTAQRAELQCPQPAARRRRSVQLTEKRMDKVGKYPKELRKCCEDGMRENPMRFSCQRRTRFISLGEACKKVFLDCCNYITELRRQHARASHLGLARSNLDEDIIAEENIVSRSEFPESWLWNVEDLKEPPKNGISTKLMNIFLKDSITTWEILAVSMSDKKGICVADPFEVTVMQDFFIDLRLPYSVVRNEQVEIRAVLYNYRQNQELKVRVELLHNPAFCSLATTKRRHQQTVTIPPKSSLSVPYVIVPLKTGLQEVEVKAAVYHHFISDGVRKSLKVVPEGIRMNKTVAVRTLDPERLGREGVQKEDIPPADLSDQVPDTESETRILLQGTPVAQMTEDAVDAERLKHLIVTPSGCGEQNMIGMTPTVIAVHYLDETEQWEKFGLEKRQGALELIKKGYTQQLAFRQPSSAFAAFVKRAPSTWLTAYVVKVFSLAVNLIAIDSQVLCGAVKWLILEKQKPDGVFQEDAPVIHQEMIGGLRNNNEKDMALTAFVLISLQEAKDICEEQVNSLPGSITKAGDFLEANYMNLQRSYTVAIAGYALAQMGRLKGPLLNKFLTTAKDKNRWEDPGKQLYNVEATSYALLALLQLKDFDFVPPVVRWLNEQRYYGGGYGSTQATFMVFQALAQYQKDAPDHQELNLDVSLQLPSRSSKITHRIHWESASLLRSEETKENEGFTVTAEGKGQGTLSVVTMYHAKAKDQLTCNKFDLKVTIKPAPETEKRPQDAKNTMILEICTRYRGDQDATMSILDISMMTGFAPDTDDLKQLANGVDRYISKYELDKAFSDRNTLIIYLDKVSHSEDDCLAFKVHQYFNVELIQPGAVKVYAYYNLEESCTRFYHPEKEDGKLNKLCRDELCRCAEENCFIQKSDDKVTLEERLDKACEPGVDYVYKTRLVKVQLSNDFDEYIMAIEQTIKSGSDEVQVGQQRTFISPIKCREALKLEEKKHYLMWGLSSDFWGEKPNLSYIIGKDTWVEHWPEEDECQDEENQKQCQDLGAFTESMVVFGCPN

- iC3b EC50: 50.1 nM
B1: Const. No. 94: hCFI-PD (wild type plasma-derived human CFI) (enzyme)
chain: KVTYTSQEDLVEKKCLAKKYTHLSCDKVFCQPWQRCIEGTCVCKLPYQCPKNGTAVCATNRRSFPTYCQQKSLECLHPGTKFLNNGTCTAEGKFSVSLKHGNTDSEGIVEVKLVDQDKTMFICKSSWSMREANVACLDLGFQQGADTQRRFKLSDLSINSTECLHVHCRGLETSLAECTFTKRRTMGYQDFADVVCYTQKADSPMDDFFQCVNGKYISQMKACDGINDCGDQSDELCCKACQGKGFHCKSGVCIPSQYQCNGEVDCITGEDEVGCAGFASVTQEETEILTADMDAERRRIKSLLPKLSCGVKNRMHIRRKRIVGGKRAQLGDLPWQVAIKDASGITCGGIYIGGCWILTAAHCLRASKTHRYQIWTTVVDWIHPDLKRIVIEYVDRIIFHENYNAGTYQNDIALIEMKKDGNKKDCELPRSIPACVPWSPYLFQPNDTCIVSGWGREKDNERVFSLQWGEVKLISNCSKFYGNRFYEKEMECAGTYDGSIDACKGDSGGPLVCMDANNVTYVWGVVSWGENCGKPEFPGVYTKVANYFDWISYHVGRPFISQYNV

- iC3b EC50: 62.4 nM
B2: Const. No. 96: hCFI (wt hCFI, no signal sequence, no HSA) (enzyme)
chain: B1 chain
